Experimental data: patent publication US20230034768A1 (BIOSION, published 2023)
Numbering of substitutions follows the chain as printed. Where two headings read alike, the source gives them in different places. Values belong to the binder of their own block, whether it stands above or below them.

Legend:
[1] = target: T1, Recombinant human RANKL-his protein (R&D, Cat #6449-TEC-010) (human, UniProt O14788 140-317, limits assumed); assay: cell-based or functional assay
T1 sequence (looked up): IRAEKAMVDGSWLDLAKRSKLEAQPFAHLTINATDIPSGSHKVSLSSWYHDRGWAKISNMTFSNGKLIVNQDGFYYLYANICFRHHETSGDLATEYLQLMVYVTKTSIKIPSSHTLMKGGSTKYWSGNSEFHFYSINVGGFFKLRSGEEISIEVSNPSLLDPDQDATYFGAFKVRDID

[2] = target: T1, Recombinant human RANKL-his protein …; assay: cell-based or functional assay; remark: listed apart in the source
[3] = target: T2, human RANKL-his protein (prepared in-house with SEQ ID NO: 43) (human, UniProt O14788 136-317); assay: Octet BLI, antibody from cell supernatant captured, human RANKL-his in solution
T2 construct: also called recombinant human RANKL-his
T2 chain: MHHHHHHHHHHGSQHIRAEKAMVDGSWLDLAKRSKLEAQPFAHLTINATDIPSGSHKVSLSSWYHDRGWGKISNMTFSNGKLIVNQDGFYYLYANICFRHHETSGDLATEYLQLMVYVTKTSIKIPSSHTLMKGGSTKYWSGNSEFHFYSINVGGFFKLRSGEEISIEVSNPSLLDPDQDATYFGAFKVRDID
Method: (§1) Briefly, AHC/AMC biosensors (anti-human/anti-mouse IgG Fc capture, ForteBio) were presoaked with 10 mM glycine (pH 1.5) for 3 seconds, and then dipped in a well with running buffer (0.5% w/v BSA in PBST) for 3 seconds, the soaking and dipping steps were repeated for three times. […] A new baseline was run for 180 seconds in another well with HBS-EP⁺. […] Finally, sensors were presoaked with 10 mM glycine (pH 1.5) for 3 seconds, and then dipped in a well with running buffer for 3 seconds, the soaking and dipping steps repeated for three times. The association and dissociation curves were fit to a 1:1 Langmuir binding model using Octet evaluation software.
(§2) The chimeric antibody when tested was in HBS-EP⁺ at 5 μg/ml concentration.

[4] = target: T3, biotin-labeled human RANKL-Fc protein (prepared in house, SEQ ID NO.: 40) (human, biotin-labeled (sites not given)); assay: capture ELISA: captured antibody, biotin-labeled human RANKL-Fc, OD(450-630)
T3 construct: also called RANKL-Fc-biotin
Method: (§3) Plates were washed once with wash buffer (PBS+0.05% v/v Tween-20, PBST) and then blocked with 200 μl/well blocking buffer (5% w/v non-fatty milk in PBST) for 2 hours at 37° C. […] After a final wash, plates were incubated with 100 μl/well ELISA substrate TMB (Innoreagents, Cat #TMB-S-002) at room temperature. The reaction was stopped in 3-10 minutes with 50 μl/well 1M H₂SO₄, and the absorbance of each well was read on a microplate reader using dual wavelengths mode with 450 nm for TMB and 630 nm as the reference wavelength. The OD (450-630) values were plotted against antibody concentration. Data were analyzed using Graphpad Prism software and EC₅₀ values were reported.
For the capture ELISA, 96-well micro plates were coated with 2 μg/ml goat anti-human IgG (AffiniPure Goat Anti-Human IgG, F(ab′)₂ fragment specific, Jackson Immunoresearch, Cat #109-005-097) instead of AffiniPure Goat Anti-Mouse IgG, Fcγ fragment specific, 100 μl/well.

[5] = target: T2, human RANKL-his protein (prepared …); assay: Biacore T200 SPR, antibody captured by anti-human IgG, human RANKL-his in flow, 1:1 fit
Method: (§4) Briefly, goat anti-human IgG (GE healthcare, Cat #BR100839, Human Antibody Capture Kit) was covalently linked to a CM5 chip (carboxy methyl dextran coated chip from GE healthcare #BR10030) via primary amines, using a standard amine coupling kit provided by Biacore. Un-reacted moieties on the biosensor surface were blocked with ethanolamine. […] The antigen-antibody association kinetics was followed for 2 minutes and the dissociation kinetics was followed for 10 minutes. The association and dissociation curves were fit to a 1:1 Langmuir binding model using BIAcore evaluation software.

[6] = target: T4, cynomolgus monkey RANKL-his protein (prepared in-house with SEQ ID NO.:42) (cynomolgus monkey, UniProt O14788 136-317 (human entry), limits assumed); assay: Biacore T200 SPR, antibody captured by anti-human IgG, cynomolgus RANKL-his in flow, 1:1 fit
T4 construct: also called Cynomolgus RANKL
T4 chain: T2 chain with S53T, G70A, I167V
Method: as §4

[7] = target: T3, biotin-labeled human RANKL-Fc protein …; assay: competitive ELISA: antibody blocks biotin-labeled human RANKL-Fc binding to coated human RANK-Fc
Method: (§5) Briefly, human RANK-Fc proteins (prepared in house, SEQ ID NO.: 41) were coated on 96-well micro plates at 2.0 μg/mL in PBS, 100 μl/well, and incubated overnight at 4° C. The next day, plates were washed with wash buffer (PBS+0.05% w/v Tween-20, PBST), and blocked with 5% w/v non-fatty milk in PBST, 200 μl/well, for 2 hours at 37° C.
(§6) Plates were washed 4 times using wash buffer, and added and incubated with 100 μl/well of streptavidin conjugated HRP (1:10000 dilution in PBST buffer, Jackson ImmunoResearch Laboratories, Inc., Cat #016-030-084) for 40 minutes at 37° C. Plates were washed again using wash buffer. Finally, TMB was added and the reaction was stopped using 1M H₂SO₄, and the absorbance of each well was read on a microplate reader using dual wavelengths mode with 450 nm for TMB and 630 nm as the reference wavelength. The OD (450-630) values were plotted against antibody concentration. Data were analyzed using Graphpad Prism software and IC₅₀ values were reported.

[8] = target: T3, biotin-labeled human RANKL-Fc protein …; assay: competitive ELISA: antibody blocks biotin-labeled human RANKL-Fc binding to coated benchmark denosumab
[9] = target: T1, Recombinant human RANKL-his protein …; assay: cell-based or functional assay; remark: listed apart in the source
[10] = target: T2, human RANKL-his protein (prepared …); assay: Octet BLI, antibody captured, human RANKL-his in solution (same value as Table 2)
Method: as §1

[11] = target: T3, biotin-labeled human RANKL-Fc protein …; assay: capture ELISA: captured antibody, biotin-labeled human RANKL-Fc, OD(450-630); remark: listed apart in the source
Method: as §3

[12] = target: T3, biotin-labeled human RANKL-Fc protein …; assay: as above; remark: listed apart in the source
Method: as §3
(§7) Cell supernatants were harvested after six days in shaking flasks, spun down to pellet cells, and then chimeric antibodies were purified from cell supernatants as described above. The purified antibodies were tested in the capture ELISA, competitive ELISA assay and Octet affinity test following the protocols in the foregoing Examples.

[13] = target: T2, human RANKL-his protein (prepared …); assay: Octet BLI, antibody captured on AHC/AMC sensor, human RANKL-his in solution, 1:1 fit
Method: as §1

[14] = target: T3, biotin-labeled human RANKL-Fc protein …; assay: competitive ELISA: antibody blocks biotin-labeled human RANKL-Fc binding to coated human RANK-Fc; remark: listed apart in the source
Method: as §5, §6

[15] = target: T3, biotin-labeled human RANKL-Fc protein …; assay: competitive ELISA: antibody blocks biotin-labeled human RANKL-Fc binding to coated benchmark denosumab; remark: listed apart in the source
Method: The next day, plates were washed with wash buffer, and blocked with 5% w/v non-fatty milk in PBST, 200 μl/well, for 2 hours at 37° C. […] After incubation at 37° C. for 40 minutes, plates were washed 4 times using wash buffer. Then the plates were added and incubated with 100 μl Peroxidase Streptavidin (1:5000 dilution in PBST buffer, Jackson Immunoresearch, Cat #016-030-084) for 40 minutes at 37° C. Plates were washed again using wash buffer. Finally, TMB was added and the reaction was stopped using 1M H₂SO₄. The absorbance of each well was read on a microplate reader using dual wavelengths mode with 450 nm for TMB and 630 nm as the reference wavelength, and the OD (450-630) values were plotted against antibody concentration. Data were analyzed using Graphpad Prism software and IC₅₀ values were reported.

[16] = target: T1, Recombinant human RANKL-his protein …; assay: cell-based or functional assay; remark: listed apart in the source
[17] = target: T2, human RANKL-his protein (prepared …); assay: Octet BLI, antibody captured, human RANKL-his in solution
Method: as §1, §7

[18] = target: T2, human RANKL-his protein (prepared …); assay: Octet BLI, chimeric antibody at 5 ug/ml captured, human RANKL-his in solution
Method: as §1, §2

[19] = target: T3, biotin-labeled human RANKL-Fc protein …; assay: competitive ELISA: antibody blocks biotin-labeled human RANKL-Fc binding to coated human RANK-Fc; remark: listed apart in the source
[20] = target: T3, biotin-labeled human RANKL-Fc protein …; assay: competitive ELISA: antibody blocks biotin-labeled human RANKL-Fc binding to coated benchmark denosumab; remark: listed apart in the source

IC50, RANKL-induced osteoclast differentiation of RAW264.7 cells (pNPP, OD405) [1]: ~1.42 nM
IC50, RANKL-induced osteoclast differentiation of RAW264.7 cells (pNPP, OD405) [2]: ~1.45 nM
Kd [3]: < 0.001 nM
koff [3]: < 1e-07 s⁻¹
kon [3]: 112000 M⁻¹ s⁻¹
EC50 [4]: 0.2 nM
Kd [5]: 0.134 nM
Kd [6]: 0.42 nM
IC50 [7]: 0.154 nM
IC50 [8]: 0.444 nM
B1: humanized antibody huD1A1-V2 (antibody, human IgG4 S228P, kappa, V domains shown)
VH: EVQLVESGGGLVKPGGSLRLSCAASGFTFRNYAMSWVRQAPGKGLEWVSGISSGGTYTYYPDTVKGRFTISRDNAKNSLYLQMNSLRAEDTAVYYCARRDYGDVYEWYFDVWGKGTTVTVSS
VL: DIQMTQSPSSLSASVGDRVTITCKASQDVRTSIAWYQQKPGKAPKLLIYSASYRYTGVPSRFSGSGSGTDFTFTISSLQPEDIATYYCQQHYSSPWTFGGGTKVEIKR
notes: Human IgG4 / kappa

IC50, RANKL-induced osteoclast differentiation of RAW264.7 cells (pNPP, OD405) [1]: ~1.42 nM
IC50, RANKL-induced osteoclast differentiation of RAW264.7 cells (pNPP, OD405) [2]: 1.51 nM
Kd [3]: < 0.001 nM
koff [3]: < 1e-07 s⁻¹
kon [3]: 120000 M⁻¹ s⁻¹
EC50 [4]: 0.182 nM
Kd [5]: 0.179 nM
Kd [6]: 0.414 nM
IC50 [7]: 0.139 nM
IC50 [8]: 0.338 nM
B2: humanized antibody huD1A1-V5 (antibody, human IgG4 S228P, kappa, V domains shown)
VH: B1 VH
VL: B1 VL with A43S, I83L
notes: Human IgG4 / kappa

IC50, RANKL-induced osteoclast differentiation of RAW264.7 cells (pNPP, OD405) [9]: 0.625 nM
Kd [10]: 0.452 nM
EC50 [11]: 0.162 nM
EC50 [12]: 0.489 nM
Kd [13]: 0.452 nM
koff [13]: 0.000277 s⁻¹
kon [13]: 613000 M⁻¹ s⁻¹
IC50 [14]: 0.233 nM
IC50 [15]: 0.548 nM
B3: mouse anti-RANKL monoclonal antibody B3D8 (antibody, V domains shown)
VH: EVQLVESGGDLVKSGGSLKLSCAASGFTFSRYGMSWVRQTPDKRLEWVASISSGGTYTSYPDSVKGRFTITRDSAKNTLYLQMSSLKSEDTAMYYCARRNFITSATDCYFDVWGAGTTVTVSS
VL: DTVLTQSPATLSVTPGASVSLSCRASQSISNNLHWYQQKSHESPRLLIIYASQSISGIPSRFSGSGSGTDFTLSINSVETEDFGVYFCQQSNSWPFTFGGGTKLEIK
notes: Hybridoma-derived mouse IgG; also called Mouse B3D8

IC50, RANKL-induced osteoclast differentiation of RAW264.7 cells (pNPP, OD405) [16]: 1.39 nM
IC50, RANKL-induced osteoclast differentiation of RAW264.7 cells (pNPP, OD405) [2]: ~1.42 nM
Kd [17]: 0.197 nM
Kd [18]: < 0.001 nM
koff [18]: < 1e-07 s⁻¹
kon [18]: 128000 M⁻¹ s⁻¹
EC50 [4]: 0.257 nM
EC50 [12]: 0.624 nM
Kd [5]: 0.149 nM
Kd [6]: 0.42 nM
IC50 [19]: 0.112 nM
IC50 [7]: 0.155 nM
IC50 [20]: 0.473 nM
IC50 [8]: 0.441 nM
B4: Chimeric D1A1 (antibody, human IgG2, kappa, V domains shown)
VH: EVQLVESGGGLVKSGGSLKLSCAASGFTFRNYAMSWVRQTPEKRLEWVAGISSGGTYTYYPDTVKGRFTISRDNARNTLFLQMSSLRSEDTAMYYCARRDYGDVYEWYFDVWGTGTTVTVSS
VL: DIVMTQSHKFMSTSVGDRVSITCKASQDVRTSIAWYQQKPGQSPNLLIYSASYRYTGVPDRFTGSGSGTDFTFTISSVQAEDLAVYYCQQHYSSPWTFGGGTKLEIKR
notes: Mouse variable regions on human IgG2 / kappa; also called chimeric antibody D1A1; chimeric D1A1 antibody
